Tests used:
[1] = target: 人CD40 (HEK293A细胞表达) (human) (UniProt P25942); assay: cell-based or functional assay
[2] = target: 人CD40(ECD)-his蛋白 (human) (UniProt P25942); assay: SPR Biacore 8K; human CD40(ECD)-his coupled to CM5, antibody as analyte, 1:1 model
Sequence of 人CD40(ECD)-his蛋白 (human) (P25942 21-193): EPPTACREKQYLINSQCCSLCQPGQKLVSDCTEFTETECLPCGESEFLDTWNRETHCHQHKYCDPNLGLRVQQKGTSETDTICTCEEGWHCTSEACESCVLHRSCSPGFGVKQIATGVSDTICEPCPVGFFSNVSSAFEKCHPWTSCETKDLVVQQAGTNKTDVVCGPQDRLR

Sequence of 人CD40 (HEK293A细胞表达) (human) (P25942 21-277 limits assumed): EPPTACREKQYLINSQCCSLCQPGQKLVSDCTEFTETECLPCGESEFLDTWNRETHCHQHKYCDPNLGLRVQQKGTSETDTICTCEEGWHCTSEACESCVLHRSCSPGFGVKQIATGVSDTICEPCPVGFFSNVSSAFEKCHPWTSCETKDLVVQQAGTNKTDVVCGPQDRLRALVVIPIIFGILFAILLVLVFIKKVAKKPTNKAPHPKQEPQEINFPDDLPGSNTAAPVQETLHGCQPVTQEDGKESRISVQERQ

| Substance | HEK-Blue EC50 [1] | Kd [2] |
| --- | --- | --- |
| RO7009789 (antibody) | 0.0233 µg/mL | 1.71 nM |
| ADC1013 (antibody) | 1.03 µg/mL | 29 nM |
